The text below walks through data of publication PMC3535332 (Nature Communications, 2012).

Substrate in data set [1]: NC(=O)c1ccc[n+]([C@@H]2O[C@H](COP(=O)(O)OP(=O)(O)OC[C@H]3O[C@@H](n4cnc5c(N)ncnc54)[C@H](O)[C@@H]3O)[C@@H](O)[C@H]2O)c1
In words: purified protein. Particulars: ATP as donor, 20 mM MgCl2, 100 mM Tris-HCl pH 8.0, 37 °C.

Substrate in data set [2]: Nc1ncnc2c1ncn2[C@@H]1O[C@H](COP(=O)(O)OP(=O)(O)OP(=O)(O)O)[C@@H](O)[C@H]1O
Kind of data set: purified protein. The conditions noted are these: 5 mM NAD+, 40 mM MgCl2, 100 mM Tris-HCl pH 8.0, 37 °C.

The data set “SEC” concerns the molecule itself. In words: SEC. Background: SEC sorts molecules by how far they enter the pores of the column.

B1: purified C5orf33 protein (His-tagged Δ62C5orf33 protein) (enzyme, human, UniProt Q4G0N4-1 63-442, looked up)
chain: DGGFRPSRVVVVAKTTRYEFEQQRYRYAELSEEDLKQLLALKGSSYSGLLERHHIHTKNVEHIIDSLRNEGIEVRLVKRREYDEETVRWADAVIAAGGDGTMLLAASKVLDRLKPVIGVNTDPERSEGHLCLPVRYTHSFPEALQKFYRGEFRWLWRQRIRLYLEGTGINPVPVDLHEQQLSLNQHNRALNIERAHDERSEASGPQLLPVRALNEVFIGESLSSRASYYEISVDDGPWEKQKSSGLNLCTGTGSKAWSFNINRVATQAVEDVLNIAKRQGNLSLPLNRELVEKVTNEYNESLLYSPEEPKILFSIREPIANRVFSSSRQRCFSSKVCVRSRCWDACMVVDGGTSFEFNDGAIASMMINKEDELRTVLLEQ
The Km is the substrate concentration at which the rate is half of its maximum. In general, stoichiometry N refers to a count of units in the complex or per binding partner. B1: the figures for the Michaelis constant (Km) in “purified protein [1]” and in the data set “purified protein [2]” were 22 ± 1 µM and 1700 ± 300 µM, respectively. In addition, the “stoichiometry N” value in the data set “SEC” was 2.
